Measurements reported in the supplement of paper PMC7877785.
± gives the uncertainty stated by the source.

Assay: self-splicing fitness, log relative to wild type (ln ratio); higher = more splicing; Tetrahymena group I intron in knt gene, E. coli kanamycin selection, DiMSum; sequences stand for … in CUCUCU…GGAGGGAAAAGUUAUCAGGCAUGCACCUGGUAGCUAGUCUUUAAACCAAUAGAUUGCAUCGGUUUAAAAGGCAAGACCGUCAAAUUGCGGGAAAGGGGUCAACAGCCGUUCAGUACCAAGUCUCAGGGGAAACUUUGAGAUGGCCUUGCAAAGGGUAUGGUAAUAAGCUGACGGACAUGGUCCUAACCACGCAGCCAAGUCCUAAGUCAACAGAUCUUCUGUUGAUAUGGAUGCAGUUCACAGACUAAAUGUCGGUCGGGGAAGAUGUAUUCUUCUCAUAAGAUAUAGUCGGACCUCUCCUUAAUGGGAGCUAGCGGAUGAAGUGAUGCAACACUGGAGCCGCUGGGAACUAAUUUGUAUGCGAAAGUAUAUUGAUUAGUUUUGGAGUACUCGUGGUCG
How it was run: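 Colonies from six replicate transformations of E. coli BL21(DE3) were pooled and amplicon-sequenced on an Illumina HiSeq 2500. The library placed an intron with all eight P1ex-region nucleotides randomised inside the knt kanamycin-resistance gene on pET-22b(+), and cells grew overnight at 37°C or 30°C on LB agar with or without 25 μg/mL kanamycin (plus 100 μg/mL carbenicillin, 50 μM IPTG, 0.2% rhamnose). Fitness is the DiMSum error-weighted combination of wild-type-normalised replicate fold changes, kanamycin versus none.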

Sequence | self-splicing fitness (ln) (30 °C) | self-splicing fitness (ln) (37 °C)
GUCUAGCAAUAUUACGUGCC | -1.54 ± 0.24 | -0.468 ± 0.28
GUCUAGCAAUAUUACGUUUC | -0.78 ± 0.057 | -0.0328 ± 0.073
GUGAAGCAAUAUUACGAAAC | -1.66 ± 0.11 | -0.943 ± 0.14
GUGAAGCAAUAUUACGACUA | -0.0623 ± 0.096 | 0.462 ± 0.14
GUGAAGCAAUAUUACGAUCU | -1.26 ± 0.13 | -0.0185 ± 0.12
GUGAAGCAAUAUUACGCAAA | -2.12 ± 0.12 | -1.52 ± 0.16
GUGAAGCAAUAUUACGCACU | -3.68 ± 0.47 | -2.19 ± 0.29
GUGAAGCAAUAUUACGCAGA | -3.85 ± 0.25 | -2.39 ± 0.25
GUGAAGCAAUAUUACGCAUU | -2.66 ± 0.27 | -1.05 ± 0.15
GUGAAGCAAUAUUACGCGCG | -0.674 ± 0.083 | 0.0224 ± 0.12
GUGAAGCAAUAUUACGCUAA | -1.25 ± 0.15 | -0.0384 ± 0.17
GUGAAGCAAUAUUACGCUAU | -1.95 ± 0.15 | -0.0655 ± 0.15
GUGAAGCAAUAUUACGGCAA | 0.587 ± 0.084 | 0.552 ± 0.11
GUGAAGCAAUAUUACGGGCG | -0.39 ± 0.052 | -0.217 ± 0.065
GUGAAGCAAUAUUACGGGGA | -2.85 ± 0.22 | -2.64 ± 0.29
GUGAAGCAAUAUUACGGGUC | -2.26 ± 0.21 | -2.21 ± 0.28
GUGAAGCAAUAUUACGGUUA | -0.24 ± 0.054 | 0.132 ± 0.086
GUGAAGCAAUAUUACGUAGA | -2.33 ± 0.17 | -0.683 ± 0.17
GUGAAGCAAUAUUACGUCCA | -0.721 ± 0.16 | 0.775 ± 0.22
GUGAAGCAAUAUUACGUCUU | -1.6 ± 0.067 | -0.642 ± 0.078
GUGAAGCAAUAUUACGUGGG | -3.96 ± 0.2 | -2.13 ± 0.15
GUGCAGCAAUAUUACGAAGA | -2.35 ± 0.46 | -0.855 ± 0.15
GUGCAGCAAUAUUACGAAGC | -1.05 ± 0.14 | -1.36 ± 0.19
GUGCAGCAAUAUUACGACCA | -0.711 ± 0.1 | -0.667 ± 0.13
GUGCAGCAAUAUUACGACUA | -0.908 ± 0.24 | -0.48 ± 0.26

Sequence | self-splicing fitness (ln) (30 °C) | self-splicing fitness (ln) (37 °C)
GUGCAGCAAUAUUACGACUU | -0.219 ± 0.087 | 0.408 ± 0.093
GUGCAGCAAUAUUACGAGAG | -2.23 ± 0.15 | -2.42 ± 0.2
GUGCAGCAAUAUUACGAGUC | -2.57 ± 0.1 | -0.808 ± 0.099
GUGCAGCAAUAUUACGAGUG | -2.2 ± 0.15 | -2.11 ± 0.17
GUGCAGCAAUAUUACGAUCA | -1.14 ± 0.1 | -0.487 ± 0.12
GUGCAGCAAUAUUACGAUGC | -0.245 ± 0.11 | 0.208 ± 0.17
GUGCAGCAAUAUUACGCAAG | -1.5 ± 0.1 | -0.974 ± 0.12
GUGCAGCAAUAUUACGCAAU | -1.75 ± 0.085 | -1.37 ± 0.12
GUGCAGCAAUAUUACGCACC |  | -1.79 ± 0.35
GUGCAGCAAUAUUACGCACG | -2.88 ± 0.38 | -2.85 ± 0.45
GUGCAGCAAUAUUACGCCGU | -2.77 ± 0.23 | -0.412 ± 0.18
GUGCAGCAAUAUUACGCGAC | -3.59 ± 0.34 | -1.8 ± 0.2
GUGCAGCAAUAUUACGCGAU | -3.78 ± 0.31 | -1.45 ± 0.31
GUGCAGCAAUAUUACGCGGU | -2.93 ± 0.19 | -2.94 ± 0.32
GUGCAGCAAUAUUACGGAAC | -2.17 ± 0.23 | -1.12 ± 0.33
GUGCAGCAAUAUUACGGAAU | -2.01 ± 0.073 | -0.012 ± 0.087
GUGCAGCAAUAUUACGGCAG | -2.71 ± 0.33 | -1.04 ± 0.25
GUGCAGCAAUAUUACGGGCG | -1.82 ± 0.092 | -0.512 ± 0.11
GUGCAGCAAUAUUACGUAAA | -0.491 ± 0.084 | -1.05 ± 0.11
GUGCAGCAAUAUUACGUAAC | -1.63 ± 0.15 | -0.239 ± 0.14
GUGCAGCAAUAUUACGUCCG | -3 ± 0.22 | -0.37 ± 0.18
GUGCAGCAAUAUUACGUCGG | -2.84 ± 0.16 | -1.47 ± 0.17
GUGCAGCAAUAUUACGUGUG | -2.95 ± 0.11 | -1.33 ± 0.1
GUGCAGCAAUAUUACGUGUU | -1.99 ± 0.081 | -1.22 ± 0.084
GUGCAGCAAUAUUACGUUUU | -2.08 ± 0.096 | -1.69 ± 0.096

Sequence | self-splicing fitness (ln) (30 °C) | self-splicing fitness (ln) (37 °C)
GUGGAGCAAUAUUACGAAGA |  | -2.05 ± 0.49
GUGGAGCAAUAUUACGAGCG | -3.52 ± 0.38 | -1.62 ± 0.31
GUGGAGCAAUAUUACGAGGG | -4.4 ± 0.33 | 
GUGGAGCAAUAUUACGAUGG |  | -2.9 ± 0.38
GUGGAGCAAUAUUACGCAUA |  | -1.1 ± 0.4
GUGGAGCAAUAUUACGCCUC | -3.07 ± 0.3 | -1 ± 0.25
GUGGAGCAAUAUUACGCCUG | -2.7 ± 0.23 | 
GUGGAGCAAUAUUACGGCUG | -2.49 ± 0.21 | -2.1 ± 0.32
GUGGAGCAAUAUUACGGGAA | -2.15 ± 0.28 | -3.23 ± 0.35
GUGGAGCAAUAUUACGGGGU | -3.24 ± 0.44 | -2.26 ± 0.42
GUGGAGCAAUAUUACGGUCC | -2.12 ± 0.19 | -1.91 ± 0.24
GUGGAGCAAUAUUACGUAAA | -1.5 ± 0.21 | -2.18 ± 0.47
GUGGAGCAAUAUUACGUCAA | -1.28 ± 0.33 | -1.78 ± 0.32
GUGGAGCAAUAUUACGUCAG |  | -2.43 ± 0.46
GUGGAGCAAUAUUACGUGAU | -2.49 ± 0.12 | -1.6 ± 0.12
GUGGAGCAAUAUUACGUUAC | -2.99 ± 0.24 | -2.5 ± 0.3
GUGGAGCAAUAUUACGUUGA | -3.13 ± 0.47 | -1.5 ± 0.25
GUGGAGCAAUAUUACGUUUA | -3.33 ± 0.2 | -2.26 ± 0.33
GUGUAGCAAUAUUACGAAUC | -1.43 ± 0.17 | -0.973 ± 0.14
GUGUAGCAAUAUUACGACGA | -0.571 ± 0.14 | -0.584 ± 0.16
GUGUAGCAAUAUUACGACGC | -1.8 ± 0.18 | -0.0871 ± 0.22
GUGUAGCAAUAUUACGAUAC | -2.23 ± 0.25 | -1.01 ± 0.25
GUGUAGCAAUAUUACGAUCC | -0.838 ± 0.21 | -0.041 ± 0.46
GUGUAGCAAUAUUACGCCGG | -2.93 ± 0.27 | -2.16 ± 0.38
GUGUAGCAAUAUUACGCUCU | -1.72 ± 0.23 | -0.839 ± 0.22

Sequence | self-splicing fitness (ln) (30 °C) | self-splicing fitness (ln) (37 °C)
GUGUAGCAAUAUUACGGCUA | -1.84 ± 0.34 | -2.77 ± 0.32
GUGUAGCAAUAUUACGGUGG | -3.98 ± 0.35 | -3.36 ± 0.31
GUGUAGCAAUAUUACGUAAC | -1.66 ± 0.14 | -0.0998 ± 0.14
GUGUAGCAAUAUUACGUCAU | -3.23 ± 0.2 | -2.63 ± 0.17
GUGUAGCAAUAUUACGUCCC | -0.132 ± 0.21 | -0.385 ± 0.23
GUGUAGCAAUAUUACGUCUA | -1.13 ± 0.24 | 0.254 ± 0.23
GUGUAGCAAUAUUACGUCUG | -1.08 ± 0.17 | -1.74 ± 0.27
GUGUAGCAAUAUUACGUUCG | -1.65 ± 0.091 | -0.693 ± 0.11
GUGUAGCAAUAUUACGUUGU | -3.02 ± 0.28 | -2.17 ± 0.21
GUGUAGCAAUAUUACGUUUU | -3.32 ± 0.16 | -1.45 ± 0.12
GUUAAGCAAUAUUACGAAUG | -2.32 ± 0.24 | -1.59 ± 0.21
GUUAAGCAAUAUUACGAGAG | -3.24 ± 0.2 | -2.26 ± 0.2
GUUAAGCAAUAUUACGCACG | -0.281 ± 0.18 | -0.714 ± 0.18
GUUAAGCAAUAUUACGCAUA | -0.993 ± 0.091 | -0.274 ± 0.11
GUUAAGCAAUAUUACGCCCU | -0.813 ± 0.14 | -0.242 ± 0.11
GUUAAGCAAUAUUACGCUUG | -2.28 ± 0.14 | -0.983 ± 0.15
GUUAAGCAAUAUUACGGGAU | -2.31 ± 0.14 | -0.169 ± 0.14
GUUAAGCAAUAUUACGGGCU | -4.09 ± 0.34 | -1.85 ± 0.2
GUUAAGCAAUAUUACGGGGG | -3.44 ± 0.34 | -2.67 ± 0.27
GUUAAGCAAUAUUACGGUGU | -1.58 ± 0.11 | -0.8 ± 0.12
GUUAAGCAAUAUUACGUCCC | 0.552 ± 0.49 | 
GUUAAGCAAUAUUACGUGAG | -0.109 ± 0.052 | -0.0542 ± 0.098
